Measured values taken from publication PMC3433420, “Comprehensive Binary Interaction Mapping of SH2 Domains via Fluorescence Polarization Reveals Novel Functional Diversification of ErbB Receptors” (PLoS ONE, 2012).
Several values for one entry are separate records, joined by “and”; a condition that tells them apart may be missing. Identical values can stand only once. Non-standard residues stand in square brackets, D forms with d. No end group written: not given here. pY = N[C@@H](Cc1ccc(OP(=O)(O)O)cc1)C(=O)O; Rhodamine = not defined here

Tests used:
Assay in all cases: peptide or protein array; SH2/PTB proteins spotted on aldehyde slides, rhodamine peptide titrated in buffer B (20 mM HEPES, 100 mM KCl, 0.1% Tween-20, 5 mM DTT, pH 7.8), 1 h at room temperature; replicate assays
Settings in all cases: both partners purified
GRAP2 SH2 domain = target: T1, GRAP2 SH2 domain (human, UniProt O75791 58-149)
T1 construct: GRAP2, human; source: bacterial expression, purified
T1 sequence (looked up): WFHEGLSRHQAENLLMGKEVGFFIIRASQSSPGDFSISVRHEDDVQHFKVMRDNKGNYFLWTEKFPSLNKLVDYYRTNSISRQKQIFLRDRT

[1] = target: T2, PTPN11 tandem SH2 domains (human)
T2 construct: PTPN11, human; also called PTPN11-NC; source: bacterial expression, purified
T2 sequence (Q06124 whole entry, looked up): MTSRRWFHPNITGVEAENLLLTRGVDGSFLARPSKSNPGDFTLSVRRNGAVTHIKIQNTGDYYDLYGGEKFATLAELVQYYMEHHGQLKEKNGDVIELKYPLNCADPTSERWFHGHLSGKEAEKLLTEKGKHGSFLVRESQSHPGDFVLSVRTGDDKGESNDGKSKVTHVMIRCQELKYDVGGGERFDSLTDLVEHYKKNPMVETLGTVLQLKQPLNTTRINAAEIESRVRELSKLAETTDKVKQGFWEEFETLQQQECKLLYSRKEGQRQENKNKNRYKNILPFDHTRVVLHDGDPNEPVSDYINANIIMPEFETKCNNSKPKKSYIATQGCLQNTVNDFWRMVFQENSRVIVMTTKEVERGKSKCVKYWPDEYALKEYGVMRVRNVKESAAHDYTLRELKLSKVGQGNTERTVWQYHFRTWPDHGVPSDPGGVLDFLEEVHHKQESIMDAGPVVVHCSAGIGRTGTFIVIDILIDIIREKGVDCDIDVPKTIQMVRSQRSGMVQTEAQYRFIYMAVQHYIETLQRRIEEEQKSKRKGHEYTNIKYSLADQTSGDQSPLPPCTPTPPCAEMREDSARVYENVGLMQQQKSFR

[2] = target: T3, SYK N-terminal SH2 domain (human)
T3 construct: SYK, human; source: bacterial expression, purified

MATK SH2 domain = target: T4, MATK SH2 domain (human, UniProt P42679 122-211)
T4 construct: MATK, human; source: bacterial expression, purified
T4 sequence (looked up): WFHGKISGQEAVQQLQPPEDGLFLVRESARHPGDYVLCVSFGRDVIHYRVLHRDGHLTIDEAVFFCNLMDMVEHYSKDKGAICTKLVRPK

ZAP70 tandem SH2 domains = target: T5, ZAP70 tandem SH2 domains (human)
T5 construct: ZAP70, human; also called ZAP70-NC; source: bacterial expression, purified

[3] = target: T6, PIK3R2 tandem SH2 domains (human, UniProt O00459 1-728)
T6 construct: PIK3R2, human; also called PIK3R2-NC; source: bacterial expression, purified

SOCS6 SH2 domain = target: T7, SOCS6 SH2 domain (human, UniProt O14544 384-491)
T7 construct: SOCS6, human; source: bacterial expression, purified
T7 sequence (looked up): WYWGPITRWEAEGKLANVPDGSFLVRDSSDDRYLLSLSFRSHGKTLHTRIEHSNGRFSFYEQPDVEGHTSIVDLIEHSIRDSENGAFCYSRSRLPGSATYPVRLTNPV

BLNK SH2 domain = target: T8, BLNK SH2 domain (human, UniProt Q8WV28 346-453)
T8 construct: BLNK, human; source: bacterial expression, purified
T8 sequence (looked up): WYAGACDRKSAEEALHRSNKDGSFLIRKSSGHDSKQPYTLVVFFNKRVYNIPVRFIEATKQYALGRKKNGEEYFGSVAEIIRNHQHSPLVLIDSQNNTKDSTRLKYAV

VAV1 SH2 domain = target: T9, VAV1 SH2 domain (human, UniProt P15498 671-765)
T9 construct: VAV1, human; source: bacterial expression, purified
T9 sequence (looked up): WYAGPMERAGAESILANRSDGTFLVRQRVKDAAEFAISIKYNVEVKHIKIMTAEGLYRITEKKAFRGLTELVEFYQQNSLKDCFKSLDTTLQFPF

T6 sequence (O00459 whole entry, the tested form may be a part): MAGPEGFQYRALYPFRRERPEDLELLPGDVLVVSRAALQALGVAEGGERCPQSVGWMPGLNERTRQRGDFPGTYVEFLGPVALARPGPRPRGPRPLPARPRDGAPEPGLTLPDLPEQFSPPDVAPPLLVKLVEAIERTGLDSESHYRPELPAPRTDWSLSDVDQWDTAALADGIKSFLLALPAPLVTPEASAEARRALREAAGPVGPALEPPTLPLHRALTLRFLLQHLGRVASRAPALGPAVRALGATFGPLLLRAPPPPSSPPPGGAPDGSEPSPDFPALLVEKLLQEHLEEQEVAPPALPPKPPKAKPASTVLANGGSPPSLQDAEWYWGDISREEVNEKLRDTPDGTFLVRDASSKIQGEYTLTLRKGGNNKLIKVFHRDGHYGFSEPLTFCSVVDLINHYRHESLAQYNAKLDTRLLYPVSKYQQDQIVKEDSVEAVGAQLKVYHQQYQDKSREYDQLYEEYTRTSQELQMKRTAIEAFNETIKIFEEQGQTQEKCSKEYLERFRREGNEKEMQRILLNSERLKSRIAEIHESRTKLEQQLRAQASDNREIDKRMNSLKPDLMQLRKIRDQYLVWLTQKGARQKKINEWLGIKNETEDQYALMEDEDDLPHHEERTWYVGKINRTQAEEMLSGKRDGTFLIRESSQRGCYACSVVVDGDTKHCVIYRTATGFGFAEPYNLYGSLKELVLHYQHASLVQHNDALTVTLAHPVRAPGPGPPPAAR
T5 sequence (P43403 whole entry, the tested form may be a part): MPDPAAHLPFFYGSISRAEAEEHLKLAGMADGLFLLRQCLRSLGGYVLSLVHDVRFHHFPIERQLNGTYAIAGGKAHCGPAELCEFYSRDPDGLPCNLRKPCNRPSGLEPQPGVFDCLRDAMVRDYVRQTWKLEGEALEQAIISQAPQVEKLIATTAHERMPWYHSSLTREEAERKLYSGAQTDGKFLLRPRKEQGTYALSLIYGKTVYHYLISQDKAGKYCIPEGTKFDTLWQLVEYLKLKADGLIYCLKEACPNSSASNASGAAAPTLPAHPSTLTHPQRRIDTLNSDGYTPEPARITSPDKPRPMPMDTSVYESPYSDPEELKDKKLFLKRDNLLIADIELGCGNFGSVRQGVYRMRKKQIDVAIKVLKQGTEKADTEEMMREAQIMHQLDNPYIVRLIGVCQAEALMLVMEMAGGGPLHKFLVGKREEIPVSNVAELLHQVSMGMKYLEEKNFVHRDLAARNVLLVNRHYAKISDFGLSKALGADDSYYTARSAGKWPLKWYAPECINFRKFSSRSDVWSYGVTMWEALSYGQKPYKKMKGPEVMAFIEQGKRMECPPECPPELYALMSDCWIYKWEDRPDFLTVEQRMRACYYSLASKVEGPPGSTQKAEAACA

With Rhodamine-ETDG[pY]VAPLTCSD (reading uncertain) [ErbB2 pY1127 phosphopeptide, rhodamine-labelled, for protein microarrays] the Kd (GRAP2 SH2 domain) was 19.4 µM, the Kd [1] was 1150 nM and 1530 nM and the Kd [2] was 3210 nM and 2330 nM. The Kd (MATK SH2 domain) was 4.4 µM, the Kd (ZAP70 tandem SH2 domains) was 2010 nM and 2410 nM and the Kd [3] was 10.6 nM and 4.66 nM. The Kd (SOCS6 SH2 domain) was 8.93 µM and 5.2 µM, the Kd (BLNK SH2 domain) was 1950 nM and 1250 nM and the Kd (VAV1 SH2 domain) was 186 nM and 91.6 nM.
